We go through one substance from US20250223358A1.

Where “and” joins values, the source holds several entries; their conditions need not be identical. Equal values may be shown once.

For this test, the target named is human CD3 (human) (UniProt P07766). The experiment in a line: cell-based or functional assay.
Chain of human CD3 (human) (P07766 23-207, chain 1 of 3): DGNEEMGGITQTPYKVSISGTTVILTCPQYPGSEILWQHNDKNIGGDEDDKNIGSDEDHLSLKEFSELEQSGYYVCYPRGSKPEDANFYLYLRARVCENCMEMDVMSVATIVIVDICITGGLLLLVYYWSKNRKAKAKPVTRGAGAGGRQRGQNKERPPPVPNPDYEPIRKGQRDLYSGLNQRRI
Chain of human CD3 (human) (P04234 22-171, chain 2 of 3, further chain): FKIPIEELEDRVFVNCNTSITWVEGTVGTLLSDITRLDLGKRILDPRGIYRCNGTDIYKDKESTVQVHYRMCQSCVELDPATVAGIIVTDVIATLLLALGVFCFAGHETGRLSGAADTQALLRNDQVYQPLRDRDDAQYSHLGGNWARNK
Chain of human CD3 (human) (P09693 23-182, chain 3 of 3, further chain): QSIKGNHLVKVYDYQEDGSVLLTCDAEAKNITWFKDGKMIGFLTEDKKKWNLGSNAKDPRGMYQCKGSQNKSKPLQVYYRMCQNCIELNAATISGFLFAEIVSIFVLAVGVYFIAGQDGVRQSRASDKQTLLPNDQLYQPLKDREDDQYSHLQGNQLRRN

As for Isotype control (antibody), the RLU (Jurkat-NFAT-luciferase activation, antibody coated at 50 ug/mL), Plate 1 was 564 RLU and 582 RLU; the RLU (Jurkat-NFAT-luciferase activation, antibody coated at 50 ug/mL), Plate 2 is 386 RLU and 380 RLU; the RLU (Jurkat-NFAT-luciferase activation, antibody coated at 50 ug/mL), Plate 3 was 237 RLU and 231 RLU.
